B2: Mouse receptor for advanced glycation endproduct (RAGE) at the blood-brain barrier (receptor)
chain: GQNITARIGEPLVLSCKGAPKKPPQQLEWKLNTGRTEAWKVLSPQGGPWDSVAQILPNGSLLLPATGIVDEGTFRCRATNRRGKEVKSNYRVRVYQIPGKPEIVDPASELTASVPNKVGTCVSEGSYPAGTLSWHLDGKLLIPDGKETLVKEETRRHPETGLFTLRSELTVIPTQGGTTHPTFSCSFSLGLPRRRPLNTAPIQLRVREPGPPEGIQLLVEPEGGIVAPGGTVTLTCAISAQPPPQVHWIKDGAPLPLAPSPVLLLPEVGHADEGTYSCVATHPSHGPQESPPVSIRVTETGDEGPAEGSVGESGLGTLALALGILGGLGVVALLVGAILWRKRQPRREERKAPESQEDEEERAELNQSEEAEMPENGAGGP
notes: Endogenous RAGE on brain microvessels/endothelium of living mice (brain perfusion model); The mice in the experiments were of other strains; also called receptor for advanced glycosylation end products

For assay [1], the target named is B2. Kind of assay: in vivo brain perfusion with 125I-Aβ, capillary-depletion, binding to brain microvessels. On the procedure: (§1) Injection of radioisotopes for transport studies. […] When the effects of different unlabeled molecular reagents were tested, those were injected 5 min prior to tracers injection and than simultaneously with radiolabled ligands. At predetermined times within 10 min mice were sacrificed by decapitation, and brain tissue prepared for radioactivity analysis. TCA and HPLC analysis as we described were used to determine molecular forms of uptake of radiolabeled Aβ by the BBB. Capillary-depletion technique was used to separate micravascular pellet from capillary-depleted brain to quantify in vivo binding to microvessels vs. transport into brain parenchyma, as we reported.

For assay [2], the target named is T1, Aβ1-40 human form (synthetic amyloid-beta peptide 1-40) (human, UniProt P05067 672-711, radioiodinated with Na[125I] for the transport and binding studies).
T1 construct: domain: Aβ1-40; Stock solutions in DMSO to keep it monomeric; Aβ numbering 1-40 counts on the Aβ peptide, not on APP; also called human Aβ1-40; Amyloid β1-40 peptide
Described as above. Here is the method:
as §1

Ends that are not written are not given here.

B1: Aβ1-40 murine form (synthetic amyloid-beta peptide 1-40) (peptide, UniProt P12023 672-711, looked up)
peptide: DAEFGHDSGFEVRHQKLVFFAEDVGSNKGAIIGLMVGGVV
modifications: also: radioiodinated with Na[125I], position not given here
notes: domain: Aβ1-40; also called mouse Aβ1-40; murine Aβ1-40
Take B1: in assay [1], the binding result is given as “binds”.
B2: in assay [2], the binding result was “binds”.

The values are drawn from patent publication US6825164 (TRUSTEES OF COLUMBIA UNIVERSITY IN THE CITY OF NEW YORK, dated 2004).
